Test results: publication PMC7659722 (The Journal of Cell Biology, 2020)

Target: the molecule itself
Test: SDS-PAGE

B1: recombinant human FIT2 WT, 3FLAG-tagged (enzyme, UniProt Q8N6M3 1-262, looked up)
chain: MEHLERCEWLLRGTLVRAAVRRYLPWALVASMLAGSLLKELSPLPESYLSNKRNVLNVYFVKVAWAWTFCLLLPFIALTNYHLTGKAGLVLRRLSTLLVGTAIWYICTSIFSNIEHYTGSCYQSPALEGVRKEHQSKQQCHQEGGFWHGFDISGHSFLLTFCALMIVEEMSVLHEVKTDRSHCLHTAITTLVVALGILTFIWVLMFLCTAVYFHNLSQKVFGTLFGLLSWYGTYGFWYPKAFSPGLPPQSCSLNLKQDSYKK
B1: binds.
